{
  "source": "paper doi:10.1101/681668",
  "about": "(bioRxiv, 2019)",
  "target": "T1, MBP-ORC1 CDK12 (human, UniProt Q13415 1-861, S258A | S273A)",
  "T1 sequence": "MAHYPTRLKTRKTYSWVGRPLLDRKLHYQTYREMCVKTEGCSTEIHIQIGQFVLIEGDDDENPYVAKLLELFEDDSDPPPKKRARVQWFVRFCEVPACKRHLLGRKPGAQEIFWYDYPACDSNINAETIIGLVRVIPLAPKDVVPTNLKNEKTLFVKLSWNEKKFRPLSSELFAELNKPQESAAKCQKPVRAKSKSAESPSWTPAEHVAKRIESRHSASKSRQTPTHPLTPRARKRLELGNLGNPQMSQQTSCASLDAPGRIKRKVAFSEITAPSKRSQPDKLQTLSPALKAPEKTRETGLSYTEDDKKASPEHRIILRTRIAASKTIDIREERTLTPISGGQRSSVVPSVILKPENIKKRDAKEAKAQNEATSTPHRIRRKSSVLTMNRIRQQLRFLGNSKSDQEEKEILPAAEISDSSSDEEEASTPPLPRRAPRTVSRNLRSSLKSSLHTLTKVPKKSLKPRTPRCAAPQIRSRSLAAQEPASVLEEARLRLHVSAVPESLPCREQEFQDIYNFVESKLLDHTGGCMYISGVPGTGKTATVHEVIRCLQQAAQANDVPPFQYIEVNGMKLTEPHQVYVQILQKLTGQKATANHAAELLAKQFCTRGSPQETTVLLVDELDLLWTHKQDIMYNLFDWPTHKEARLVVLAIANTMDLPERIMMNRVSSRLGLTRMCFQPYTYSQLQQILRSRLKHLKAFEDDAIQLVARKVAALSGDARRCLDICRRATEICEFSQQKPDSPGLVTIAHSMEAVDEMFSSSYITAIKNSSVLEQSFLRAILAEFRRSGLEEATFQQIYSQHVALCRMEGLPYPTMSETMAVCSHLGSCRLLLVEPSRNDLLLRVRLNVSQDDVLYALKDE",
  "test": "pull-down",
  "data": [
    {"binder": "GST-CDC6 (natural protein) MPQTRSQAQATISFPKRKLSRALNKAKNSSDAKLEPTNVQTVTCSPRVKALPLSPRKRLGDDNLCNTPHLPPCSPPKQGKKENGPPHSHTLKGRRLVFDNQLTIKSPSKRELAKVHQNKILSSVRKSQEITTNSEQRCPLKKESACVRLFKQEGTCYQQAKLVLNTAVPDRLPAREREMDVIRNFLREHICGKKAGSLYLSGAPGTGKTACLSRILQDLKKELKGFKTIMLNCMSLRTAQAVFPAIAQEICQEEVSRPAGKDMMRKLEKHMTAEKGPMIVLVLDEMDQLDSKGQDVLYTLFEWPWLSNSHLVLIGIANTLDLTDRILPRLQAREKCKPQLLNFPPYTRNQIVTILQDRLNQVSRDQVLDNAAVQFCARKVSAVSGDVRKALDVCRRAIEIVESDVKSQTILKPLSECKSPSEPLIPKRVGLIHISQVISEVDGNRMTLSQEGAQDSFPLQQKILVCSLMLLIRQLKIKEVTLGKLYEAYSKVCRKQQVAAVDQSECLSLSGLLEARGILGLKRNKETRLTKVFFKIEEKEIEHALKDKALIGNILATGLP", "values": [
      {"measurement": "binding result", "value": "binds"}
    ]}
  ]
}
